Reference: patent publication US20140242111A1

Biological target: insulin receptor on differentiated 3T3-L1 adipocytes (mouse (murine 3T3-L1 cell line)) (UniProt P15208)
Experiment: cell-based or functional assay

Sequence of insulin receptor on differentiated 3T3-L1 adipocytes (mouse (murine 3T3-L1 cell line)) (P15208 28-1372): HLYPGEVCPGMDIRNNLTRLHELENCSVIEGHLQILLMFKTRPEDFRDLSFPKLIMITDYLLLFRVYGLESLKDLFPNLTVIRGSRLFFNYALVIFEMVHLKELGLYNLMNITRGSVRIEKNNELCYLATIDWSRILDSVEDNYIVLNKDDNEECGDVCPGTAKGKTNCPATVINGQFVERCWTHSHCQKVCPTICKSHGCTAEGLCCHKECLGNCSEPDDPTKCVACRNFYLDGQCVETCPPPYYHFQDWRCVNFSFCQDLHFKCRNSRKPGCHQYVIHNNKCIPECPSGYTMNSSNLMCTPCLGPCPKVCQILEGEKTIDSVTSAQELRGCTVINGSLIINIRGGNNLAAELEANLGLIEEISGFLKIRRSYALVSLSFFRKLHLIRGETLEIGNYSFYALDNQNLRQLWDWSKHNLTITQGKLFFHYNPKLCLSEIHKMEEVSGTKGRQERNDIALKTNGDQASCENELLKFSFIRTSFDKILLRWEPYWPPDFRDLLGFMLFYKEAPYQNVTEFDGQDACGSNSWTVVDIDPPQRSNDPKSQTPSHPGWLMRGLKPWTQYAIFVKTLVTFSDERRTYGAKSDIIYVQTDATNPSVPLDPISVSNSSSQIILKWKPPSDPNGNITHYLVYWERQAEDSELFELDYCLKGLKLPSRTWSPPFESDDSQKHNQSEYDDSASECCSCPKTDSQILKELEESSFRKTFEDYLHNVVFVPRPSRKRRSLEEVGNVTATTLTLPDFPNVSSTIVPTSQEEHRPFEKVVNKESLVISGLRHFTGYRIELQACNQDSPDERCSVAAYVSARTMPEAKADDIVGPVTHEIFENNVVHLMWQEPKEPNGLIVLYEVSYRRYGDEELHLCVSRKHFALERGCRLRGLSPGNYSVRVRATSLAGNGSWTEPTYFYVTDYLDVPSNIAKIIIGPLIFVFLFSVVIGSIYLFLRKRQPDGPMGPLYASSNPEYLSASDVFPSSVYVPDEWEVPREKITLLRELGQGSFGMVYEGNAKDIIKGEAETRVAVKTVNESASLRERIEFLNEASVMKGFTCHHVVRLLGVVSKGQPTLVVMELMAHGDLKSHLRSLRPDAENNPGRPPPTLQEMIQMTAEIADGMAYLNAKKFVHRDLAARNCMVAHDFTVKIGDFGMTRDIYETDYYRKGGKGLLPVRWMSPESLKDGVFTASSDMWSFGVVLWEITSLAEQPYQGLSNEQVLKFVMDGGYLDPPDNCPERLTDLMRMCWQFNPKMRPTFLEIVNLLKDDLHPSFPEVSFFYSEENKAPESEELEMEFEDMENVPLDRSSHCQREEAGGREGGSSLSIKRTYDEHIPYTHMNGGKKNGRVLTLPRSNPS

Insulin activity (with RGS-His tag), p-Akt on 3T3-L1 adipocytes; culture: M17 with NaOH addition at 0.5 hr (nM commercial insulin (equivalent))	Insulin activity (with RGS-His tag), p-Akt on 3T3-L1 adipocytes; culture: M17 with NaOH addition at 1.5 hr (nM commercial insulin (equivalent))	Insulin activity (with RGS-His tag), p-Akt on 3T3-L1 adipocytes; culture: M17 with NaOH addition at 2.5 hr (nM commercial insulin (equivalent))	Insulin activity (with RGS-His tag), p-Akt on 3T3-L1 adipocytes; culture: M17 with NaOH addition every hour (nM commercial insulin (equivalent))	p-Akt(Ser473) Western blot on differentiated 3T3-L1 adipocytes, quantified from three independent experiments; supernatant of induced culture treated with NaOH (scale: nM commercial insulin)	Insulin activity (no tag), p-Akt on 3T3-L1 adipocytes; culture: M17 only (nM commercial insulin (equivalent))	Insulin activity (no tag), p-Akt on 3T3-L1 adipocytes; culture: M17 with 50 mM sodium phosphates (nM commercial insulin (equivalent))	Insulin activity (no tag), p-Akt on 3T3-L1 adipocytes; culture: M17 with NaOH addition at 1.5 hr (nM commercial insulin (equivalent))	Binder
1	1	< 1	1	1	–	–	–	RGS-His-tagged SCI-57 (single-chain insulin analog secreted by L. lactis NZ9000(pNZPnisA:uspSCI-57his), usp45 signal peptide cleaved) (ligand) FVNQHLCGSDLVEALYLVCGERGFFYTDPTGGGPRRGIVEQCCHSICSLYQLENYCNRGSHHHHHH
–	–	–	–	–	< 1	< 1	> 1	SCI-57 without RGS-His tag (single-chain insulin analog secreted by L. lactis NZ9000(pNZPnisA:uspSCI-57)) (ligand) FVNQHLCGSDLVEALYLVCGERGFFYTDPTGGGPRRGIVEQCCHSICSLYQLENYCN
